Patent EP4442322A1

Molecular target: ASGPR of the murine amino acid sequence (murine)
Assay: cell-based or functional assay

Chain of ASGPR of the murine amino acid sequence (murine) (P34927 whole entry, chain 1 of 2): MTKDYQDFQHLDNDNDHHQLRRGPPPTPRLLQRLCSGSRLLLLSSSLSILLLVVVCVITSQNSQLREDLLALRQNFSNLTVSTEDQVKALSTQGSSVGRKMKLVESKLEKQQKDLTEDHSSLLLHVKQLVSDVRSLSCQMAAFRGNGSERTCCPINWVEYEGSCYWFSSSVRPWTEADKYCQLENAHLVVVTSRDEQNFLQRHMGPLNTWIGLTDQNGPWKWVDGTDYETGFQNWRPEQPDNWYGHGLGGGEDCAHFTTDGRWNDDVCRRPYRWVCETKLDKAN
Chain of ASGPR of the murine amino acid sequence (murine) (P24721 whole entry, chain 2 of 2, further chain): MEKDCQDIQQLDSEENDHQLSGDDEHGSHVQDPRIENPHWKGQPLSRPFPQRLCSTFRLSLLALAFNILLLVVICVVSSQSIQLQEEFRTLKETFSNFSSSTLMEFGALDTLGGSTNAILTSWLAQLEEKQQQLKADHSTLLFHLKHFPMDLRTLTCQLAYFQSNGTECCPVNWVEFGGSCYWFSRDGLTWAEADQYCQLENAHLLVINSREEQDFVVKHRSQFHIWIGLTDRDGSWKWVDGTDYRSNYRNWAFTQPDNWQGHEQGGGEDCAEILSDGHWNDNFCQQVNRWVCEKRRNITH

B1: CAR having the scFv of SEQ ID NO: 26 (C3), murine Ig-construct (mIg) (protein)
chain: VHSQVTLKESGGGLVQPGGSLRLSCAASGFTFSSYAMSWVRQAPGKGLEWVSAISGSGGSTYYADSVKGRFTISRDNSKNTLYLQMNSLRAEDTAVYYCAKDLKQWLEDYWGQGTLVTVSSGSASAPKLEEGEFSEARVDVVMTQSPSTLSASVGDRVTITCRASQSIGPWLAWYQQKPGEAPKLLLYKASILEGGVPSRFSGRGSGTEFTLTISSLQPDDFATYYCQQYNTFGPTFGQGTKLEIKRTVAAPSVFDPVPRDGGCKPCICTVPRDGGCKPCICTVPEVSSVFIFPPKPKDVLTITLTPKVTCVVVDISKDDPEVQFSWFVDDVEVHTAQTQPREEQFNSTFRSVSELPIMHQDWLNGKEFKCRVNSAAFPAPIEKTISKTKGRPKAPQVCTIPPPKEQMAKDKVSLTCMITDFFPEDITVEWQWNGQPAENYKNTQPIMDTDGSYFVYSKLNVQKSNWEAGNTFTCSVLHEGLHNHHTEKSLSHSPGVFLACVLGGSFGFLGFLGLCILCCVNSRRNRLLQSDYMNMTPRRPGLTRKPYQPYAPARDFAAYRPLRAKFSRSAETAANLQDPNQLYNELNLGRREEYDVLEKKRARDPEMGGKQQRRRNPQEGVYNALQKDKMAEAYSEIGTKGERRRGKGHDGLYQGLSTATKDTYDALHMQTLAPR
  activated cells (GFP), Q2 (Fig. 9E): 3.7%
  activated cells (GFP), Q2 and Q3 in total (Fig. 9E): 6.06%
  activated cells (GFP), Q3 (Fig. 9E): 2.36%

B2: CAR having the scFv of SEQ ID NO: 24 (C11), murine CD8 construct (mCD8) (protein)
chain: QIQLVQSGGGLVQPGGSLRLSCAGSGYTFSDHYMDWVRQAPGKGLEWVGRIRYKANSYSTEYAASVKGRFTISRDDSRNSLFLQMNSLKTEDTAVYYCARIRDRYYFDYWGQGALVTVSSGSASAPKLEEGEFSEARVQSVLTQPPSVSGAPGQRVTISCTGSSSNVGAGYDVHWYQQLPGAAPKLLIYGNSNRPSGVPDRFSGSKSGTSASLAISGLQSEDEADYYCAAWDDSLNGVVFGGGTKLTVLGQPKAAPSVTLFPPSSAAAGSEQKLISEEDLSHHHHHHSSVVPVLQKVNSTTTKPVLRTPSPVHPTGTSQPQRPEDCRPRGSVKGTGLDFACDIYIWAPLAGICVALLLSLIITLICYHRWTNSRRNRLLQSDYMNMTPRRPGLTRKPYQPYAPARDFAAYRPRAKFSRSAETAANLQDPNQLYNELNLGRREEYDVLEKKRARDPEMGGKQQRRRNPQEGVYNALQKDKMAEAYSEIGTKGERRRGKGHDGLYQGLSTATKDTYDALHMQTLAPR
  activated cells (GFP), Q2 (Fig. 6F): 4.04%
  activated cells (GFP), Q2 and Q3 in total (Fig. 6F): 9.44%
  activated cells (GFP), Q3 (Fig. 6F): 5.4%

B3: CAR having the scFv of SEQ ID NO: 24 (C11), murine Ig-construct (mIg) (protein)
chain: QIQLVQSGGGLVQPGGSLRLSCAGSGYTFSDHYMDWVRQAPGKGLEWVGRIRYKANSYSTEYAASVKGRFTISRDDSRNSLFLQMNSLKTEDTAVYYCARIRDRYYFDYWGQGALVTVSSGSASAPKLEEGEFSEARVQSVLTQPPSVSGAPGQRVTISCTGSSSNVGAGYDVHWYQQLPGAAPKLLIYGNSNRPSGVPDRFSGSKSGTSASLAISGLQSEDEADYYCAAWDDSLNGVVFGGGTKLTVLGQPKAAPSVTLFPPSSAAAGSEQKLISEEDLSHHHHHHVPRDGGCKPCICTVPEVSSVFIFPPKPKDVLTITLTPKVTCVVVDISKDDPEVQFSWFVDDVEVHTAQTQPREEQFNSTFRSVSELPIMHQDWLNGKEFKCRVNSAAFPAPIEKTISKTKGRPKAPQVCTIPPPKEQMAKDKVSLTCMITDFFPEDITVEWQWNGQPAENYKNTQPIMDTDGSYFVYSKLNVQKSNWEAGNTFTCSVLHEGLHNHHTEKSLSHSPGVFLACVLGGSFGFLGFLGLCILCCVNSRRNRLLQSDYMNMTPRRPGLTRKPYQPYAPARDFAAYRPLRAKFSRSAETAANLQDPNQLYNELNLGRREEYDVLEKKRARDPEMGGKQQRRRNPQEGVYNALQKDKMAEAYSEIGTKGERRRGKGHDGLYQGLSTATKDTYDALHMQTLAPR
  activated cells (GFP), Q2 (Fig. 6E): 3.41%
  activated cells (GFP), Q2 and Q3 in total (Fig. 6E): 13.3%
  activated cells (GFP), Q3 (Fig. 6E): 9.86%
